Two molecules from US20120020971A1 can be followed below.

Common to all, as to experiment: FortéBio biosensor (biolayer interferometry), HA0 protein
(BLI is a label-free optical method that tracks binding on a fibre tip over time.)

Assay [1] addresses HA0 protein of the H1 clade (influenza A virus, H1 clade (strain not stated)).
Assay [2] concerns the target HA0 protein from the H3 clade (influenza A virus, H3 clade (strain not stated)).
Assay [3] concerns the target HA0 protein from the H5 clade (influenza A virus, H5 clade (strain not stated)).
The target in assay [4] is HA0 protein from the H7 clade (influenza A virus, H7 clade (strain not stated)).
The target in assay [5] is HA0 protein from the H9 clade (influenza A virus, H9 clade (strain not stated)).

B1: MAB8 (antibody, V domains shown)
VH: EVQLVESGGGLVKPGGSLRLSCAASGFTFSTYTMSWVRQAPGQGLEWVSSITRTSSNIYYADSVEGRFTISRDNAKNSLYLQMHSLRVEDTAVYYCARISGVVGPVPFDYWGQGTLITVSS
VL: DIQMTQSPSSLSASVGDRVTITCRASQTISKYLNWYQQKPGRAPKLLIYSASSLQSGVPSRFTGSGSGTDFTLTITSLQPEDFATYYCQQSYRPSQITFGPGTKVDIKR
In the case of B1, the Kd (usually the free concentration of one partner at which half of the binding sites on the other are occupied at equilibrium, for simple one-to-one binding) in assay [1] stood at 9 nM; in assay [2], 16 nM; in assay [3], 0.2 nM.

B2: MAB53 (antibody, V domains shown)
VH: QVQLVQSGAEVRKPGSSVKVSCKVSGGIIRKYAINWVRQAPGQGLEWMGGIIAIFNTANYAQKFQGRVTITADESTSTVYMELSSLRSEDTALYYCARGMNYYSDYFDYWGQGSLVTVSP
VL: EIVLTQSPGTLSLSPGERATLSCRASQSVRSNNLAWYQHKPGQAPRLLIFGASSRATGIPDRFSGSGSGTDFTLTISRLEPEDFAVYYCQQYGSSPALTFGGGTKVEIKR
Consider B2, for which the Kd came to 0.07 nM in assay [4], 0.03 nM in assay [5], 0.06 nM in assay [1] and 6 nM in assay [3].
